In article PMC10039067, “Temporal and spatial assembly of inner ear hair cell ankle link condensate through phase separation” (Nature Communications, 2023):
Values joined by “and” are separate entries in the source; they are usually repeats but may differ in a detail not shown here. Identical values can stand only once. Like-named read-outs stand apart in the source and are kept apart here.

B3: WHRN NPDZ12 (domain or fragment, UniProt Q9P202 33-377, looked up)
chain: RLLSANVRQLHQALTALLSEAEREQFTHCLNAYHARRNVFDLVRTLRVLLDSPVKRRLLPMLRLVIPRSDQLLFDQYTAEGLYLPATTPYRQPAWGGPDSAGPGEVRLVSLRRAKAHEGLGFSIRGGSEHGVGIYVSLVEPGSLAEKEGLRVGDQILRVNDKSLARVTHAEAVKALKGSKKLVLSVYSAGRIPGGYVTNHIYTWVDPQGRSISPPSGLPQPHGGALRQQEGDRRSTLHLLQGGDEKKVNLVLGDGRSLGLTIRGGAEYGLGIYITGVDPGSEAEGSGLKVGDQILEVNGRSFLNILHDEAVRLLKSSRHLILTVKDVGRLPHARTTVDETKWIAS
notes: WHRN, residues 33-377 (NTD, PDZ1 and PDZ2) of UniProtKB Q9P202; Cloned into pET.32M.3C; Named Trx-WHRN NPDZ12 in SEC-MALS; also called Trx-WHRN NPDZ12; Whirlin; source: E. coli BL21 (DE3), purified (Ni2+-NTA, size-exclusion chromatography); not shown: Trx, N-terminal, kept

Legend:
WHRN NPDZ12 [1] = target: B3; assay: ITC; MicroCal iTC200, 25 °C; 50 mM tris pH 7.5-8.0, 300 mM NaCl, 1 mM DTT, 1 mM EDTA; cell 20–50 µM, syringe 400–800 µM; one-site binding model
USH2A-CT = USH2A-CT (UniProt Q2QI47); assay: SEC-MALS; single proteins at 50 μM; Superose 12 10/300 GL or Superdex 200 increase 10/300 GL; 50 mM tris, 300 mM NaCl, 1 mM DTT, 1 mM EDTA
WHRN NTD = target: T1, WHRN NTD (UniProt Q9P202 33-117); assay: ITC
T1 chain: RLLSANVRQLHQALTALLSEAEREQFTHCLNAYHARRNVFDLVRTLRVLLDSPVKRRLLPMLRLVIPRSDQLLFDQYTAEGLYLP

WHRN PDZ1 = WHRN PDZ1 (UniProt Q9P202); assay: ITC; MicroCal iTC200, 25 °C; 50 mM tris pH 7.5-8.0, 300 mM NaCl, 1 mM DTT, 1 mM EDTA; cell 20–50 µM, syringe 400–800 µM; one-site binding model
WHRN NPDZ1 [2] = target: T2, WHRN NPDZ1 (UniProt Q9P202 33-239); assay: as above
T2 chain: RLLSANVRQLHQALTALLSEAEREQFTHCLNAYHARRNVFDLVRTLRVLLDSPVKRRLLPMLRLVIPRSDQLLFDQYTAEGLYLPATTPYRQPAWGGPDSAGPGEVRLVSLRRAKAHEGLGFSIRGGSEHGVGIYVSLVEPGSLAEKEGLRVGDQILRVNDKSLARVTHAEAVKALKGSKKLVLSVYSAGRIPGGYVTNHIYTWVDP

WHRN NPDZ12 T110A = target: T3, WHRN NPDZ12 T110A (UniProt Q9P202 33-377, T110A); assay: as above
T3 construct: WHRN, residues 33-377 of UniProtKB Q9P202 with the deafness-related mutation T110A; source: E. coli BL21 (DE3), purified (Ni2+-NTA, size-exclusion chromatography)
T3 sequence (looked up): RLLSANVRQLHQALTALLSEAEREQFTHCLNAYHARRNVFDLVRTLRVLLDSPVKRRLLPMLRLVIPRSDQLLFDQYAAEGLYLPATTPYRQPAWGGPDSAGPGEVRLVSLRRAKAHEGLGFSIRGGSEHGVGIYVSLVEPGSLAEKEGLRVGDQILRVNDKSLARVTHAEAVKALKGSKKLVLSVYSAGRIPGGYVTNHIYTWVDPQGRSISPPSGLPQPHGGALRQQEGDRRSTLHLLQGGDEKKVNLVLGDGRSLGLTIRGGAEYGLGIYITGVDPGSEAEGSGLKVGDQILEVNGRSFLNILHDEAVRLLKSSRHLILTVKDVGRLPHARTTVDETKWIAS

WHRN NPDZ12 R223H = target: T4, WHRN NPDZ12 R223H (UniProt Q9P202 33-377, R223H); assay: as above
T4 construct: WHRN, residues 33-377 of UniProtKB Q9P202 with the deafness-related mutation R223H; source: E. coli BL21 (DE3), purified (Ni2+-NTA, size-exclusion chromatography)
T4 sequence (looked up): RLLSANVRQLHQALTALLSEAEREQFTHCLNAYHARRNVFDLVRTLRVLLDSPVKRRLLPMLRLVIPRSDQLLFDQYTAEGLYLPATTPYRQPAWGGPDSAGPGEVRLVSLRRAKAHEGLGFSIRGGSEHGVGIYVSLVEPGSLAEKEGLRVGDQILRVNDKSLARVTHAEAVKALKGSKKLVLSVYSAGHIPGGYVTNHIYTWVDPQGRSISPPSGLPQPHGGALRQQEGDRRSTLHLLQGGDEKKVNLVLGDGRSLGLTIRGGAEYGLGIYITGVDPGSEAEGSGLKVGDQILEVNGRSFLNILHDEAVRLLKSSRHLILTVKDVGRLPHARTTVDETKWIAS

WHRN NPDZ12 A64D = target: T5, WHRN NPDZ12 A64D (UniProt Q9P202 33-377, A64D); assay: as above
T5 construct: WHRN, residues 33-377 of UniProtKB Q9P202 with the deafness-related mutation A64D; Mutant made by PCR-based mutagenesis; the ClinVar ids are tied to the mutations by their printed order; source: E. coli BL21 (DE3), purified (Ni2+-NTA, size-exclusion chromatography)
T5 sequence (looked up): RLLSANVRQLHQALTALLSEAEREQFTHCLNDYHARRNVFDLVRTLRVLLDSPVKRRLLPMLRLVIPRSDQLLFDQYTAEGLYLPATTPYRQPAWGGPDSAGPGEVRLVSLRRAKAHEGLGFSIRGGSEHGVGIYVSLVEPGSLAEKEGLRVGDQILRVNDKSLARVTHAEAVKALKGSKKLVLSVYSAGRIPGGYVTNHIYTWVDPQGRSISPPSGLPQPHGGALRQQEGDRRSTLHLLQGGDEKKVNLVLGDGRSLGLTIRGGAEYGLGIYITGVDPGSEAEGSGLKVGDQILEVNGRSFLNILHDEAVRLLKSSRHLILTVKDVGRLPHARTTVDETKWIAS

PDZD7 PDZ12 G228R = target: T6, PDZD7 PDZ12 G228R (UniProt E9Q9W7 84-289, G228R); assay: ITC
T6 sequence: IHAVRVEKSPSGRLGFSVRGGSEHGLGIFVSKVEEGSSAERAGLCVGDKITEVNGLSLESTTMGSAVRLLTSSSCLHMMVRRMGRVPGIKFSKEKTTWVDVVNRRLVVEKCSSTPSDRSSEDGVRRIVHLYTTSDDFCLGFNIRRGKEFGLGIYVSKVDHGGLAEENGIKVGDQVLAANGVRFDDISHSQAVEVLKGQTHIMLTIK

PDZD7 PDZ12 M285R = target: T7, PDZD7 PDZ12 M285R (UniProt E9Q9W7 84-289, M285R); assay: ITC
T7 sequence: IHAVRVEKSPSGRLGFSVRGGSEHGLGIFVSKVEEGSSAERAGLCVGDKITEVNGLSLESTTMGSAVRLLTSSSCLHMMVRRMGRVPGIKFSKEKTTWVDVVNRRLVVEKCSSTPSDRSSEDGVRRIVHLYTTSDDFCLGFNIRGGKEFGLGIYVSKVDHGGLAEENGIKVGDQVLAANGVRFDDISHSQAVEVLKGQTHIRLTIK

PDZD7 PDZ12 = PDZD7 PDZ12 (UniProt E9Q9W7); assay: ITC; MicroCal iTC200, 25 °C; 50 mM tris pH 7.5-8.0, 300 mM NaCl, 1 mM DTT, 1 mM EDTA; cell 20–50 µM, syringe 400–800 µM; one-site binding model
PDZD7 PDZ1 = PDZD7 PDZ1 (UniProt E9Q9W7); assay: as above
Sequence of PDZD7 PDZ1 (E9Q9W7 81-167): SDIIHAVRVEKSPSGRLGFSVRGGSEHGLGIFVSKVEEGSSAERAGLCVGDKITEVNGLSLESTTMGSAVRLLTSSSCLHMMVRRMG

WHRN NPDZ12 [3] = target: B3; assay: SEC-MALS; mixtures, each component around 30 µM; Superose 12 10/300 GL or Superdex 200 increase 10/300 GL; 50 mM tris, 300 mM NaCl, 1 mM DTT, 1 mM EDTA
WHRN NPDZ1 [4] = target: T2, WHRN NPDZ1; assay: ITC
[5] = target: the molecule itself; assay: SEC-MALS; single proteins at 50 μM; Superose 12 10/300 GL or Superdex 200 increase 10/300 GL; 50 mM tris, 300 mM NaCl, 1 mM DTT, 1 mM EDTA

## ADGRV1-CT △PBM (from UniProt Q8VHN7 6239-6298) (domain or fragment)
WHRN NPDZ12 [1]
  Kd: 9.5 µM

B1: USH2A-CT (domain or fragment)
chain: PSQSQLSHAYSQSSLHRSVSQLMDMADKKVVTEDSLWETIMGHSSGLYVDEEELMNAIKGFSSVTKEHTAFTDTHL
WHRN NPDZ12 [1]
  Kd: 0.68 µM
USH2A-CT
  stoichiometry N: 2
WHRN NTD
  Kd: 19 µM
WHRN PDZ1
  Kd: 1.2 µM
WHRN NPDZ1 [2]
  Kd: 5.1 µM

## GHSSGLYVDEEELMNAIKGFSSVTKEHTAFTDTHL (domain or fragment) [USH2A-CT (Short, S)]
WHRN NPDZ12 T110A
  Kd: 16 µM
WHRN NPDZ12 [1]
  Kd: 2.7 µM
WHRN NPDZ12 R223H
  Kd: 4.7 µM
WHRN NPDZ12 A64D
  Kd: 5.5 µM
PDZD7 PDZ12 G228R
  Kd: 56 µM
PDZD7 PDZ12 M285R
  Kd: 8.5 µM
PDZD7 PDZ12
  Kd: 15 µM
PDZD7 PDZ1
  Kd: 66 µM
WHRN NPDZ12 [3]
  stoichiometry N (copies per WHRN dimer): 2
WHRN NPDZ12 [3]; scale: copy per WHRN dimer
  stoichiometry N: 1

B2: ADGRV1-CT (domain or fragment, UniProt Q8VHN7 6239-6298, looked up)
chain: GSLIADEESQEFDDLIFALKTGAGLSVSDNESGQGSQEGGTLTDSQIVELRRIPIADTHL
notes: ADGRV1 cytoplasmic region, residues 6239-6298 of UniProtKB Q8VHN7; Named Trx-ADGRV1-CT in SEC-MALS; also called Trx-ADGRV1-CT; VLGR1-CT; source: E. coli BL21 (DE3), purified (Ni2+-NTA, size-exclusion chromatography); not shown: Trx, N-terminal, kept
WHRN NPDZ12 T110A; both partners purified
  Kd: 0.55 µM
WHRN NPDZ12 [1]; both partners purified
  Kd: ~1.4 µM
WHRN NPDZ12 R223H; both partners purified
  Kd: 3.3 µM
WHRN NPDZ12 A64D; both partners purified
  Kd: 0.41 µM
WHRN NTD
  Kd: 31 µM
WHRN NPDZ1 [4]
  Kd: 9 µM
WHRN NPDZ12 [3]; both partners purified
  stoichiometry N: 2 copies per WHRN dimer and 1 copy per WHRN dimer (three proteins mixed)

## B3
[5]
  stoichiometry N: 2

B4: WHRN NTD (domain or fragment, UniProt Q9P202 33-117, looked up)
chain: RLLSANVRQLHQALTALLSEAEREQFTHCLNAYHARRNVFDLVRTLRVLLDSPVKRRLLPMLRLVIPRSDQLLFDQYTAEGLYLP
notes: WHRN N-terminal domain, residues 33-117 of UniProtKB Q9P202; also called N-terminal domain; HHD1; source: E. coli BL21 (DE3), purified (Ni2+-NTA, size-exclusion chromatography)
[5]
  binding result: binds
